Measured values taken from US20200199207A1 (MABYLON, published 2020).

Assays:
Experiment in all cases: competition ELISA, peptide in solution vs coated Ara h 2
[1] = target: T1, Peptide 6 (peanut)
T1 construct: also called linear Ara h 2 peptide 6
T1 peptide: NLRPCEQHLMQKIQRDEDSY
Procedure: (§1) A competition ELISA was used to evaluate binding of exemplary anti-peanut antibodies of the present invention to linear Ara h 2 epitopes. Serial dilutions of linear Ara h 2 epitopes (100 μM down to 0.19 nM; peptides with a length of 20 amino acids and an overlap of 12 amino acids between the peptides) were pre-incubated with exemplary anti-peanut antibodies ([…]) for 1 hour at room temperature. The pre-incubated antibody-epitope mixtures were subsequently incubated on plates coated with full length Ara h 2 (coating overnight at 4° C. with 0.05 μg/ml Ara h 2 in PBS, followed by wash out and blocking with 2% BSA in PBS). The plates were subsequently washed and binding of MAbs to Ara h 2 was detected HRP-conjugated goat anti human Fc-gamma-specific antibody (Jackson ImmunoResearch, West Grove, Pa., USA) followed by measurement of the HRP activity using a tetramethylbenzidine substrate solution (TMB, Sigma-Aldrich Chemie GmbH, Buchs, Switzerland). As may be seen from Table 5, exemplary anti-peanut allergen antibody 32B10 binds to different linear Ara h 2 epitopes than 12G10 and 37D5.

[2] = target: T2, Peptide 11 (peanut)
T2 construct: also called linear Ara h 2 peptide 11
T2 peptide: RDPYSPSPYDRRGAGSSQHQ
Procedure: as §1

[3] = target: T3, Peptide 15 (peanut)
T3 construct: also called linear Ara h 2 peptide 15
T3 peptide: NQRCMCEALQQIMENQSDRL
Procedure: as §1

[4] = target: T4, Peptide 2 (peanut)
T4 construct: also called linear Ara h 2 peptide 2
T4 peptide: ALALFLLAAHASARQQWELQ
Procedure: as §1

[5] = target: T5, Peptide 14 (peanut)
T5 construct: also called linear Ara h 2 peptide 14
T5 peptide: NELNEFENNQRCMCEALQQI
Procedure: as §1

[6] = target: T6, Peptide 8 (peanut)
T6 construct: also called linear Ara h 2 peptide 8
T6 peptide: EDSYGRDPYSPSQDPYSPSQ
Procedure: as §1

[7] = target: T7, Peptide 3 (peanut)
T7 construct: also called linear Ara h 2 peptide 3
T7 peptide: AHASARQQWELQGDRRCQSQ
Procedure: as §1

[8] = target: T8, Peptide 5 (peanut)
T8 construct: also called linear Ara h 2 peptide 5
T8 peptide: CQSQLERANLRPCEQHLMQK
Procedure: as §1

[9] = target: T9, Peptide 4 (peanut)
T9 construct: also called linear Ara h 2 peptide 4
T9 peptide: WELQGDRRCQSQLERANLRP
Procedure: as §1

[10] = target: T10, Peptide 20 (peanut)
T10 construct: also called linear Ara h 2 peptide 20
T10 peptide: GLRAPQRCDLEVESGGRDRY
Procedure: as §1

[11] = target: T11, Peptide 16 (peanut)
T11 construct: also called linear Ara h 2 peptide 16
T11 peptide: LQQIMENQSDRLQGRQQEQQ
Procedure: as §1

[12] = target: T12, Peptide 9 (peanut)
T12 construct: also called linear Ara h 2 peptide 9
T12 peptide: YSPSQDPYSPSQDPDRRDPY
Procedure: as §1

[13] = target: T13, Peptide 19 (peanut)
T13 construct: also called linear Ara h 2 peptide 19
T13 peptide: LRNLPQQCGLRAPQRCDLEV
Procedure: as §1

[14] = target: T14, Peptide 12 (peanut)
T14 construct: also called linear Ara h 2 peptide 12
T14 peptide: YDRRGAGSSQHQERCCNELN
Procedure: as §1

[15] = target: T15, Peptide 17 (peanut)
T15 construct: also called linear Ara h 2 peptide 17
T15 peptide: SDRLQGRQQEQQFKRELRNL
Procedure: as §1

[16] = target: T16, Peptide 1 (peanut)
T16 construct: 20-mer of Ara h 2, overlap of 12 with its neighbours; also called linear Ara h 2 peptide 1
T16 peptide: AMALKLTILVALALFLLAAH
Procedure: as §1

[17] = target: T17, Peptide 18 (peanut)
T17 construct: also called linear Ara h 2 peptide 18
T17 peptide: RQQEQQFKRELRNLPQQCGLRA
Procedure: as §1

[18] = target: T18, Peptide 7 (peanut)
T18 construct: also called linear Ara h 2 peptide 7
T18 peptide: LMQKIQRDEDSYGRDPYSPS
Procedure: as §1

[19] = target: T19, Peptide 10 (peanut)
T19 construct: also called linear Ara h 2 peptide 10
T19 peptide: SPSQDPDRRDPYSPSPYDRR
Procedure: as §1

[20] = target: T20, Peptide 13 (peanut)
T20 construct: also called linear Ara h 2 peptide 13
T20 peptide: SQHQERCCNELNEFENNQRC
Procedure: as §1

Measured: binding result

B1: h2F8 (antibody, V domains shown)
VH: EVQLVESGGGLVKPGGSLRLSCAASGFIFSDYNMNWVRQAPGKGLEWVSSITRSSRTIYYADSVKGRFTISRDNAKNSLHLQMNSLRDADTAVYYCAREDFDVSTGPYYMDVWGNGTTVIVSS
VL: EIVLTQSPGTLSLSPGERATLSCRASQSVSNMFLVWYQQKPGQAPRLLMYGASTRATDIPDRFSGSGSGTDFTLTISRLEPEDFAVYYCQQNGNSPYTFGQGTKLEIK
notes: Recombinant human IgG; also called hMAb 2F8
no binding (tested: 100 µM): [1] | [2] | [3] | [4] | [5] | [6] | [7] | [8] | [9] | [10] | [11] | [12] | [13] | [14] | [15] | [16] | [17] | [18] | [19] | [20]

B2: h7G6 (antibody, V domains shown)
VH: QVQLVESGGGVVQPGRSLRLSCAASGIAFNDYTMHWVRRSPDKGLEWVAAISYGGTNKYYADSVKGRFTISRDSSKNTLFLQMDSLRVEDTAVYYCARDSGYRSLLHWGQGTLVTVSS
VL: EIVLTQSPLSLPVTPGEPASISCRSSQSLVHRNGYNYLDWYLQKPGQSPQLLIYMASKRASGVPDRFSGSGSGTEFTLKISRVEAEDVGIYYCMQALQTWTFGQGTKVEVN
notes: Recombinant human IgG; also called hMAb 7G6
no binding (tested: 100 µM): [1] | [2] | [3] | [4] | [5] | [6] | [7] | [8] | [9] | [10] | [11] | [12] | [13] | [14] | [15] | [16] | [17] | [18] | [19] | [20]
